The text below walks through data of US10407638B2, “Production of alpha-olefins” (TOTAL RAFFINAGE CHIMIE, priority 2015, dated 2019).

Common to all, as to assay type: biochemical
A short description of data set [1]: Fatty acid decarboxylation assay with purified Sm46-del29, GC. The protocol:
FIG. 6: In vitro conversion of free fatty acids into α-olefins by a truncated variant of Sm46: Sm46-del29. Conversion percentages of the free fatty acid substrates (A) and the corresponding α-alkene products (B) are shown.
The fatty acid decarboxylation assays containing 1.0 μM Sm46-del29, 200 μM fatty acid substrate (from C8 to C20), 220 μM H2O2 in 200 μl of storage buffer were carried out at 28° C. for 2 h. Reactions were quenched by the addition of 20 μl of 10 M HCl. Heptadecanoic acid was added as internal standard and the mixture was extracted by 200 μl ethyl acetate. Following extraction, the organic phase was collected and analyzed by gas chromatography as described below.
The GC analytical method for hydrocarbon and fatty acid samples was adapted from Guan et al. (2011 J Chromatogr A 1218:8289-8293). The analyses were performed on an Agilent 7890B gas chromatograph equipped with a capillary column HP-INNOWAX (Agilent Technologies, Santa Clara, Calif., USA; cross-linked polyethylene glycerol, i.d. 0.25 μm film thickness, 30 m by 0.25 mm). The helium flow rate was set to 1 ml per minute. The oven temperature was controlled initially at 40° C. for 4 min, then increased at the rate of 10° C. per min to 250° C., and held for 5 min. The injecting temperature was set to 280° C. with the injection volume of 1 μl under splitless injection conditions. The response factors between fatty acids and alkenes were determined by analyzing known authentic fatty acids (C10-C20), 1-alkenes (C9-C19) and 1-heptadecanoic acid standards as described in Liu et al. (2014 Biotechnol. Biofuels 7:28).

Data set [2] is described as follows: Reaction of purified enzymes with C14 fatty acid, analysis of decarboxylation and hydroxylation products. Conditions: compared with Bs168 and Aa162; FIG. 7. The protocol:
FIG. 7: In vitro production of α-olefins by Aa162, Bs168 and Sm46-del29. Recombinantly expressed and purified enzyme (0.2 μM) was used in an in vitro assay for α-olefin biosynthesis in the presence of C14 fatty acid substrate. The conversion percentages are shown for, from left to right, C14 free fatty acid substrate, C13 α-olefin, α-hydroxy C14 fatty acid, β-hydroxy C14 fatty acid.
Recombinantly expressed and purified Bs168 and Aa162 from Example 1 and Sm46-del29 of Example 2 were reacted with C14 fatty acid and the products of decarboxylation (C13 α-olefin) and hydroxylation (α-OH—O14 fatty acid and β-OH—C14 fatty acid) reactions were analyzed.

Data set [3] can be described thus: In vitro olefin biosynthesis assay with supernatant of E. coli lysates expressing the enzyme, GC/MS. Conditions: for fatty acid decarboxylase activity (α-olefin production): C12, C14 or C16 fatty acid substrate (1 mM), H2O2 500 μM. The protocol:
FIG. 4: In vitro production of α-olefins by OleTJE, Bs168, Aa162 and Sm46. Genes encoding OleTJ, Bs168, Aa162 and Sm46 were recombinantly expressed in E. coli. The supernatant of the E. coli lysates was used in an in vitro assay for α-olefin biosynthesis in the presence of C12, C14 or C16 fatty acid substrate (1 mM) and H2O2 (500 μM). C11, C13 and C15 α-olefin production by the different enzymes is indicated as the area under the gas chromatographic (GC) peak.
E. coli BL21(DE3) cells (Novagen) carrying a recombinant plasmid or an empty PET28a plasmid (control) were cultured for several cycles to ensure best growth state at 37° C. in 10 mL LB medium supplemented with 50 μg/ml of kanamycin, followed by inoculation (1:100 ratio) into 50 mL fresh Terrific Broth medium containing 50 μg/ml of kanamycin, 1 mM thiamine, 10% glycerol and a rare salt solution (6750 mg/l FeCl3, 500 mg/l ZnCl2, 500 mg/l CoCl2, 500 mg/l Na2MoO4, 250 mg/l CaCl2, 465 mg/l CuSO4, and 125 mg/l H31303) at 37° C. Cells were grown at 37° C. for 3 to 4 h until the optical density at 600 nm (OD600) reached 0.6 to 0.8, at which 0.2 or 0.4 mM isopropyl-β-D-thiogalactopyranoside (IPTG) and 0.5 mM 5-aminolevulinic acid were added, followed by 18 h of cultivation at 16° C.
Then, the cell cultures were recovered by centrifugation (at 4° C.) and re-suspended in 1.5 mL 50 mM Tris buffer, pH 7.5, containing 0.1 M NaCl. The re-suspended cell cultures were disrupted by sonication and centrifuged at 13,000×g for 30 min (4° C.). The supernatant was collected and the pellet was re-suspended in 1.5 mL 50 mM Tris buffer, pH 7.5, containing 0.1 M NaCl for further analysis. An SDS gel was run to check the expression of the genes using 15 μL of supernatant or pellet solution mixed with 5 μL of 4× loading buffer (FIG. 3).
In vitro olefin biosynthesis was evaluated by adding to the supernatant a fatty acid substrate in DMSO to a final concentration of 0.2 mM (1:100 dilution) or 1 mM (1:10 dilution), and 500 μM H2O2. The reaction mixture was incubated at 28° C. for 2-3 h, or stopped using 50 μL of 10 M HCl at t=0, 15, 30, 60 and 120 min for a dynamic test. Then, C16 fatty acid was added at a final concentration of 0.2 mM (1:100 dilution) as an internal standard. 300 μL reaction mixture of each reaction condition was extracted with equal volume of ethyl acetate, and the organic phase was analyzed for hydrocarbons by gas chromatography/mass spectrometry (GC/MS). In the meanwhile, undecene of different concentrations (0, 0.05 mM, 0.1 mM, 0.2 mM and 0.5 mM) were tested to produce a standard curve.

Setting [4] is: C12, C14 or C16 fatty acid substrate, FIG. 4.

B1: Sm46-del29: truncated variant of Sm46 with the N-terminal 29 amino acids deleted, SEQ ID NO:13 (protein)
chain: AKKLPKVKGLDNTVDIIKGGYTYVPGKLEEFDSKAFEVRALGGKKIAVMSGKEAAEIFYDNEKMERQGTLPKRIVNTLFGKGAIHTTAGKKHVDRKALFMSLMTDENLNYLRELTRNYWFMNTERMQSMDKVNVYNESIYMLTKIGFRWAGIIQTPEEAEQNAKDMDTMINSFVSLGSAYKGYKKAKKARKRVEDFLEKQIIDVRKGKLHPEEGTALYEFAHWEDLNDNPMDSHLCAVDLMNVVRPLAAINRFISYGVKVLIEFDQEKEKLRLENNEDYAYKFAQEVRRIFPFVPYLPGRAAVDLEYDGYKIPAGMMTALDVYGTTHDEDLWENPDQFNPNRFDNWDGSPFDLIPQGGGDFYTNHRCAGEWITVIIMEETMKYFANKIEFDVPSQDLSVKLDKLPGNVTSGTIISNVRPRVARK
modifications: Sm46-del29
As to B1, the decarboxylase activity entry in data set [1] (1.0 μM enzyme, 200 μM fatty acid, 220 μM H2O2, 28° C., 2 h, FIG. 6) is “had decarboxylase activity”. The “decarboxylation of C10 free fatty acid” value in data set [1] (C9 α-olefin not detected due to volatility) was “able to decarboxylate C10 free fatty acid”. Further, the “substrate preference for α-olefin production” value in data set [1] (among tested fatty acid substrates C8 to C20, FIG. 6) is recorded as “substrate preference for C12 free fatty acid”. The “formation of hydroxy fatty acids” value in data set [2] is recorded as “formed less hydroxy fatty acids”.

B2: Bs168: P450BSβ fatty acid hydroxylase from Bacillus subtilis subsp. subtilis str. 168, SEQ ID NO:4 (protein, listed as Bacillus subtilis)
chain: MNEQIPHDKSLDNSLTLLKEGYLFIKNRTERYNSDLFQARLLGKNFICMTGAEAAKVFYDTDRFQRQNALPKRVQKSLFGVNAIQGMDGSAHIHRKMLFLSLMTPPHQKRLAELMTEEWKAAVTRWEKADEVVLFEEAKEILCRVACYWAGVPLKETEVKERADDFIDMVDAFGAVGPRHWKGRRARPRAEEWIEVMIEDARAGLLKTTSGTALHEMAFHTQEDGSQLDSRMAAIELINVLRPIVAISYFLVFSALALHEHPKYKEWLRSGNSREREMFVQEVRRYYPFGPFLGALVKKDFVWNNCEFKKGTSVLLDLYGTNHDPRLWDHPDEFRPERFAEREENLFDMIPQGGGHAEKGHRCPGEGITIEVMKASLDFLVHQIEYDVPEQSLHYSLARMPSLPESGFVMSGIRRKS
With B2, the “fatty acid decarboxylase activity (α-olefin production)” value in data set [3] (FIG. 4) is “fatty acid decarboxylase activity”. Further, the substrate preference entry in data set [3] (setting [4]) is “preference for C12 fatty acid substrate”.

B3: Sm46: olefin-producing enzyme from Staphilococcus massiliensis, SEQ ID NO:8 (protein, listed as Staphylococcus massiliensis)
chain: MFVDSILVLRLNLLKTGIQLEMKNGGIKVAKKLPKVKGLDNTVDIIKGGYTYVPGKLEEFDSKAFEVRALGGKKIAVMSGKEAAEIFYDNEKMERQGTLPKRIVNTLFGKGAIHTTAGKKHVDRKALFMSLMTDENLNYLRELTRNYWFMNTERMQSMDKVNVYNESIYMLTKIGFRWAGIIQTPEEAEQNAKDMDTMINSFVSLGSAYKGYKKAKKARKRVEDFLEKQIIDVRKGKLHPEEGTALYEFAHWEDLNDNPMDSHLCAVDLMNVVRPLAAINRFISYGVKVLIEFDQEKEKLRLENNEDYAYKFAQEVRRIFPFVPYLPGRAAVDLEYDGYKIPAGMMTALDVYGTTHDEDLWENPDQFNPNRFDNWDGSPFDLIPQGGGDFYTNHRCAGEWITVIIMEETMKYFANKIEFDVPSQDLSVKLDKLPGNVTSGTIISNVRPRVARK
Regarding B3, the “fatty acid decarboxylase activity (α-olefin production)” value in data set [3] (FIG. 4) is “fatty acid decarboxylase activity”. Also, the substrate preference result in data set [3] (later experiments, data not shown) is listed as “substrate preference for C12 fatty acid substrate”.

B4: OleTJE: P450 decarboxylase from Jeotgalicoccus sp. ATCC 8456, decarboxylates C12 to C20 free fatty acids to α-olefins (protein, listed as Jeotgalicoccus sp.)
chain: MATLKRDKGLDNTLKVLKQGYLYTTNQRNRLNTSVFQTKALGGKPFVVVTGKEGAEMFYNNDVVQREGMLPKRIVNTLFGKGAIHTVDGKKHVDRKALFMSLMTEGNLNYVRELTRTLWHANTQRMESMDEVNIYRESIVLLTKVGTRWAGVQAPPEDIERIATDMDIMIDSFRALGGAFKGYKASKEARRRVEDWLEEQIIETRKGNIHPPEGTALYEFAHWEDYLGNPMDSRTCAIDLMNTFRPLIAINRFVSFGLHAMNENPITREKIKSEPDYAYKFAQEVRRYYPFVPFLPGKAKVDIDFQGVTIPAGVGLALDVYGTTHDESLWDDPNEFRPERFETWDGSPFDLIPQGGGDYWTNHRCAGEWITVIIMEETMKYFAEKITYDVPEQDLEVDLNSIPGYVKSGFVIKNVREVVDRT
As for B4, the “fatty acid decarboxylase activity (α-olefin production)” value in data set [3] (FIG. 4) is reported as “fatty acid decarboxylase activity”.

B5: Aa162: decarboxylase (olefin-producing enzyme) from Alicyclobacillus acidocaldarius, SEQ ID NO:6 (protein, listed as Alicyclobacillus acidocaldarius)
chain: MNQCIPRDRTFDSSLALIKEGYLFIKNRVDQYQSDIFEARLLLENVVCMHGAEAAKLFYNTELFQRQGALPKRVQKTLFGENAIQTLDGTAHLHRKQLFLSLLTPDQEKSLATLATTQWRECAKVWENADRVVLFEEAKRMLCRIACQWTGVPLDESEVSKRADDFGAMVDAFGAVGPRHWKGRRARARAEAWLRQMIDEIRIGLRSVDEHTPLHVVAFWRDVNGNLLDAQMVAIELINLLRPIVAISTFITFSALALHEHPTWRDRLKARNEADIEMFVQEVRRYYPFAPFLGARVKKDFVWRGYEFKRGTLVLLDVYGTHHDARLWDSPNEFRPERFMRKTVGPFDLIPQGGGDSHTGHRCPGEGATIEIMKASVDFLVNQIDFEVPAQDLSYRLDVMPTLPKSGFVLTHVHRKFIASPTIATPNGSEALPSEV
For the molecule B5, the “fatty acid decarboxylase activity (α-olefin production)” value in data set [3] (FIG. 4) is reported as “fatty acid decarboxylase activity”. Besides, in data set [3] (setting [4]), the substrate preference result is recorded as “preference for C12 fatty acid substrate”.
